# In US20180155451A1 (published 2018):
# T1: FcγRIIb (human, UniProt P31994 43-217)
# T1 construct: extracellular domain; also called FcgRIIb; 2b
# T1 sequence (looked up): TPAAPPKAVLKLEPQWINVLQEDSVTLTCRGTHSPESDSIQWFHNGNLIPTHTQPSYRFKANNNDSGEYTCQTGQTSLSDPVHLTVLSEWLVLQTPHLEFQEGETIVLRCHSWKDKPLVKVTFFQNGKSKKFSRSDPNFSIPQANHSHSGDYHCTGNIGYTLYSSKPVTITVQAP
# Key:
# FcγRIIb = biological target: T1, FcγRIIb; experiment: SPR, captured antibody; relative to GpH7-A5/GpH7-B3/GpL16-k0
# FcγRIa = biological target: T2, FcγRIa (human, UniProt P12314 16-292); experiment: as above
# T2 construct: extracellular domain; also called FcgRI; 1a
# T2 sequence (P12314 16-292): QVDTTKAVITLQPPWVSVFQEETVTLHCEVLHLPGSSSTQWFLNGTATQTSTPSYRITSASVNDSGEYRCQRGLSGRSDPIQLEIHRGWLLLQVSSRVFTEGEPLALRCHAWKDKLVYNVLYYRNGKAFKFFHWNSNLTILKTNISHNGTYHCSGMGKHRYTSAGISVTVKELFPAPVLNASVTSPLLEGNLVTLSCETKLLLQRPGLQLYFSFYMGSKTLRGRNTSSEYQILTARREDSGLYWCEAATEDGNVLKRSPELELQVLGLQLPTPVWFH
Binder,He/Con_2b (FcγRIIb),He/Con_1a (FcγRIa)
"GpH7-A5/GpH7-B3 variant (E269_20W)/GpL16-k0 (antibody, human IgG1, kappa, IgG1 heterodimer, mutation in the GpH7-B3 chain only; also called He Ab) heavy 1: not shown heavy 2: not shown light: DIVMTQSPLSLPVTPGEPASISCQASESLVHSNRNTYLHWYLQKPGQSPQLLIYKVSNRFSGVPDRFSGSGSGTDFTLKISRVEAEDVGVYYCSQNTHVPPTFGQGTKVEIERTVAAPSVFIFPPSDEQLKSGTASVVCLLNNFYPREAKVQWKVDNALQSGNSQESVTEQDSKDSTYSLSSTLTLSKADYEKHKVYACEVTHQGLSSPVTKSFNRGEC","42.5 relative, HeCon Ab = 100","105 relative, HeCon Ab = 100"
"GpH7-A5/GpH7-B3 variant (E269_18N)/GpL16-k0 (antibody, human IgG1, kappa, IgG1 heterodimer, mutation in the GpH7-B3 chain only; also called He Ab) heavy 1: not shown heavy 2: not shown light: DIVMTQSPLSLPVTPGEPASISCQASESLVHSNRNTYLHWYLQKPGQSPQLLIYKVSNRFSGVPDRFSGSGSGTDFTLKISRVEAEDVGVYYCSQNTHVPPTFGQGTKVEIERTVAAPSVFIFPPSDEQLKSGTASVVCLLNNFYPREAKVQWKVDNALQSGNSQESVTEQDSKDSTYSLSSTLTLSKADYEKHKVYACEVTHQGLSSPVTKSFNRGEC","44.8 relative, HeCon Ab = 100","102 relative, HeCon Ab = 100"
"GpH7-A5/GpH7-B3 variant (G236_08L)/GpL16-k0 (antibody, human IgG1, kappa, IgG1 heterodimer, mutation in the GpH7-B3 chain only; also called He Ab) heavy 1: not shown heavy 2: not shown light: DIVMTQSPLSLPVTPGEPASISCQASESLVHSNRNTYLHWYLQKPGQSPQLLIYKVSNRFSGVPDRFSGSGSGTDFTLKISRVEAEDVGVYYCSQNTHVPPTFGQGTKVEIERTVAAPSVFIFPPSDEQLKSGTASVVCLLNNFYPREAKVQWKVDNALQSGNSQESVTEQDSKDSTYSLSSTLTLSKADYEKHKVYACEVTHQGLSSPVTKSFNRGEC","26.8 relative, HeCon Ab = 100","79.6 relative, HeCon Ab = 100"
"GpH7-A5/GpH7-B3 variant (G236_02A)/GpL16-k0 (antibody, human IgG1, kappa, IgG1 heterodimer, mutation in the GpH7-B3 chain only; also called He Ab) heavy 1: not shown heavy 2: not shown light: DIVMTQSPLSLPVTPGEPASISCQASESLVHSNRNTYLHWYLQKPGQSPQLLIYKVSNRFSGVPDRFSGSGSGTDFTLKISRVEAEDVGVYYCSQNTHVPPTFGQGTKVEIERTVAAPSVFIFPPSDEQLKSGTASVVCLLNNFYPREAKVQWKVDNALQSGNSQESVTEQDSKDSTYSLSSTLTLSKADYEKHKVYACEVTHQGLSSPVTKSFNRGEC","96.5 relative, HeCon Ab = 100","100 relative, HeCon Ab = 100"
"GpH7-A5/GpH7-B3 variant (G236_03V)/GpL16-k0 (antibody, human IgG1, kappa, IgG1 heterodimer, mutation in the GpH7-B3 chain only; also called He Ab) heavy 1: not shown heavy 2: not shown light: DIVMTQSPLSLPVTPGEPASISCQASESLVHSNRNTYLHWYLQKPGQSPQLLIYKVSNRFSGVPDRFSGSGSGTDFTLKISRVEAEDVGVYYCSQNTHVPPTFGQGTKVEIERTVAAPSVFIFPPSDEQLKSGTASVVCLLNNFYPREAKVQWKVDNALQSGNSQESVTEQDSKDSTYSLSSTLTLSKADYEKHKVYACEVTHQGLSSPVTKSFNRGEC","35.3 relative, HeCon Ab = 100","89.9 relative, HeCon Ab = 100"
"GpH7-A5/GpH7-B3 variant (G236_06M)/GpL16-k0 (antibody, human IgG1, kappa, IgG1 heterodimer, mutation in the GpH7-B3 chain only; also called He Ab) heavy 1: not shown heavy 2: not shown light: DIVMTQSPLSLPVTPGEPASISCQASESLVHSNRNTYLHWYLQKPGQSPQLLIYKVSNRFSGVPDRFSGSGSGTDFTLKISRVEAEDVGVYYCSQNTHVPPTFGQGTKVEIERTVAAPSVFIFPPSDEQLKSGTASVVCLLNNFYPREAKVQWKVDNALQSGNSQESVTEQDSKDSTYSLSSTLTLSKADYEKHKVYACEVTHQGLSSPVTKSFNRGEC","45.5 relative, HeCon Ab = 100","96.7 relative, HeCon Ab = 100"
"GpH7-A5/GpH7-B3 variant (G236_05P)/GpL16-k0 (antibody, human IgG1, kappa, IgG1 heterodimer, mutation in the GpH7-B3 chain only; also called He Ab) heavy 1: not shown heavy 2: not shown light: DIVMTQSPLSLPVTPGEPASISCQASESLVHSNRNTYLHWYLQKPGQSPQLLIYKVSNRFSGVPDRFSGSGSGTDFTLKISRVEAEDVGVYYCSQNTHVPPTFGQGTKVEIERTVAAPSVFIFPPSDEQLKSGTASVVCLLNNFYPREAKVQWKVDNALQSGNSQESVTEQDSKDSTYSLSSTLTLSKADYEKHKVYACEVTHQGLSSPVTKSFNRGEC","19 relative, HeCon Ab = 100","77 relative, HeCon Ab = 100"
"GpH7-A5/GpH7-B3 variant (E269_19Q)/GpL16-k0 (antibody, human IgG1, kappa, IgG1 heterodimer, mutation in the GpH7-B3 chain only; also called He Ab) heavy 1: not shown heavy 2: not shown light: DIVMTQSPLSLPVTPGEPASISCQASESLVHSNRNTYLHWYLQKPGQSPQLLIYKVSNRFSGVPDRFSGSGSGTDFTLKISRVEAEDVGVYYCSQNTHVPPTFGQGTKVEIERTVAAPSVFIFPPSDEQLKSGTASVVCLLNNFYPREAKVQWKVDNALQSGNSQESVTEQDSKDSTYSLSSTLTLSKADYEKHKVYACEVTHQGLSSPVTKSFNRGEC","44.3 relative, HeCon Ab = 100","105 relative, HeCon Ab = 100"

# Results, then the binder that gave them:
He/Con_2b (FcγRIIb),He/Con_1a (FcγRIa),Binder
"38.5 relative, HeCon Ab = 100","106 relative, HeCon Ab = 100","GpH7-A5/GpH7-B3 variant (E269_16H)/GpL16-k0 (antibody, human IgG1, kappa, IgG1 heterodimer, mutation in the GpH7-B3 chain only; also called He Ab) heavy 1: not shown heavy 2: not shown light: DIVMTQSPLSLPVTPGEPASISCQASESLVHSNRNTYLHWYLQKPGQSPQLLIYKVSNRFSGVPDRFSGSGSGTDFTLKISRVEAEDVGVYYCSQNTHVPPTFGQGTKVEIERTVAAPSVFIFPPSDEQLKSGTASVVCLLNNFYPREAKVQWKVDNALQSGNSQESVTEQDSKDSTYSLSSTLTLSKADYEKHKVYACEVTHQGLSSPVTKSFNRGEC"
"6.8 relative, HeCon Ab = 100","63.1 relative, HeCon Ab = 100","GpH7-A5/GpH7-B3 variant (G236_12R)/GpL16-k0 (antibody, human IgG1, kappa, IgG1 heterodimer, mutation in the GpH7-B3 chain only; also called He Ab) heavy 1: not shown heavy 2: not shown light: DIVMTQSPLSLPVTPGEPASISCQASESLVHSNRNTYLHWYLQKPGQSPQLLIYKVSNRFSGVPDRFSGSGSGTDFTLKISRVEAEDVGVYYCSQNTHVPPTFGQGTKVEIERTVAAPSVFIFPPSDEQLKSGTASVVCLLNNFYPREAKVQWKVDNALQSGNSQESVTEQDSKDSTYSLSSTLTLSKADYEKHKVYACEVTHQGLSSPVTKSFNRGEC"
"39.3 relative, HeCon Ab = 100","96.4 relative, HeCon Ab = 100","GpH7-A5/GpH7-B3 variant (G236_04F)/GpL16-k0 (antibody, human IgG1, kappa, IgG1 heterodimer, mutation in the GpH7-B3 chain only; also called He Ab) heavy 1: not shown heavy 2: not shown light: DIVMTQSPLSLPVTPGEPASISCQASESLVHSNRNTYLHWYLQKPGQSPQLLIYKVSNRFSGVPDRFSGSGSGTDFTLKISRVEAEDVGVYYCSQNTHVPPTFGQGTKVEIERTVAAPSVFIFPPSDEQLKSGTASVVCLLNNFYPREAKVQWKVDNALQSGNSQESVTEQDSKDSTYSLSSTLTLSKADYEKHKVYACEVTHQGLSSPVTKSFNRGEC"
"31 relative, HeCon Ab = 100","87.5 relative, HeCon Ab = 100","GpH7-A5/GpH7-B3 variant (G236_07I)/GpL16-k0 (antibody, human IgG1, kappa, IgG1 heterodimer, mutation in the GpH7-B3 chain only; also called He Ab) heavy 1: not shown heavy 2: not shown light: DIVMTQSPLSLPVTPGEPASISCQASESLVHSNRNTYLHWYLQKPGQSPQLLIYKVSNRFSGVPDRFSGSGSGTDFTLKISRVEAEDVGVYYCSQNTHVPPTFGQGTKVEIERTVAAPSVFIFPPSDEQLKSGTASVVCLLNNFYPREAKVQWKVDNALQSGNSQESVTEQDSKDSTYSLSSTLTLSKADYEKHKVYACEVTHQGLSSPVTKSFNRGEC"
"57.8 relative, HeCon Ab = 100","92.2 relative, HeCon Ab = 100","GpH7-A5/GpH7-B3 variant (G236_14T)/GpL16-k0 (antibody, human IgG1, kappa, IgG1 heterodimer, mutation in the GpH7-B3 chain only; also called He Ab) heavy 1: not shown heavy 2: not shown light: DIVMTQSPLSLPVTPGEPASISCQASESLVHSNRNTYLHWYLQKPGQSPQLLIYKVSNRFSGVPDRFSGSGSGTDFTLKISRVEAEDVGVYYCSQNTHVPPTFGQGTKVEIERTVAAPSVFIFPPSDEQLKSGTASVVCLLNNFYPREAKVQWKVDNALQSGNSQESVTEQDSKDSTYSLSSTLTLSKADYEKHKVYACEVTHQGLSSPVTKSFNRGEC"
"49.8 relative, HeCon Ab = 100","71 relative, HeCon Ab = 100","GpH7-A5/GpH7-B3 variant (G236_11K)/GpL16-k0 (antibody, human IgG1, kappa, IgG1 heterodimer, mutation in the GpH7-B3 chain only; also called He Ab) heavy 1: not shown heavy 2: not shown light: DIVMTQSPLSLPVTPGEPASISCQASESLVHSNRNTYLHWYLQKPGQSPQLLIYKVSNRFSGVPDRFSGSGSGTDFTLKISRVEAEDVGVYYCSQNTHVPPTFGQGTKVEIERTVAAPSVFIFPPSDEQLKSGTASVVCLLNNFYPREAKVQWKVDNALQSGNSQESVTEQDSKDSTYSLSSTLTLSKADYEKHKVYACEVTHQGLSSPVTKSFNRGEC"
"39.5 relative, HeCon Ab = 100","92.5 relative, HeCon Ab = 100","GpH7-A5/GpH7-B3 variant (G236_15Y)/GpL16-k0 (antibody, human IgG1, kappa, IgG1 heterodimer, mutation in the GpH7-B3 chain only; also called He Ab) heavy 1: not shown heavy 2: not shown light: DIVMTQSPLSLPVTPGEPASISCQASESLVHSNRNTYLHWYLQKPGQSPQLLIYKVSNRFSGVPDRFSGSGSGTDFTLKISRVEAEDVGVYYCSQNTHVPPTFGQGTKVEIERTVAAPSVFIFPPSDEQLKSGTASVVCLLNNFYPREAKVQWKVDNALQSGNSQESVTEQDSKDSTYSLSSTLTLSKADYEKHKVYACEVTHQGLSSPVTKSFNRGEC"
